Sequences and labels used below:
B1: Azoarcus group I ribozyme (parent)
chain: GUGCCUUGCGCCGGGAAACCACGCAAGGGAUGGUGUCAAAUUCGGCGAAACCUAAGCGCCCGCCCGGGCGUAUGGCAACGCCGAGCCAAGCUUCGGCGCCUGCGCCGAUGAAGGUGUAGAGACUAGACGGCACCCACCUAAGGCAAACGCUAUGGUGAAGGCAUAGUCCAGGGAGUGGCGAAAGUCACACAAACCGG

Variants of B1 are the subject of the data set. Nature of the data set: reverse-splicing fitness (ratio to wild type); higher = more active; in vitro selection; Mg2+ level not given. A digest of the protocol:
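An in vitro group I ribozyme library with randomized positions was T7-transcribed and gel-purified. In triplicate, 10 pmol RNA in EPPS pH 7.5 was reacted with 50 pmoles of a 30-nt RNA substrate for 1 h at 37 °C across several added MgCl2 levels (1–48 mM), then stopped with EDTA. Products were reverse transcribed from a substrate-complementary primer, PCR-amplified and sequenced (HiSeq 4000). Fitness is a variant's read proportion after selection over that before, normalised to wild type.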
On to GUGCCUUGCGCCGGGAAACCACGCAAGGGAUGGUGUCAAAUUCGGCGAAACCUAAGCGCCCGCCCGGGCGUAUGGCAACGCGGAGCCAAGCUUCGGCGCCUGCGCCGAUGAAGGUGUAGUGACUAGACGGCACCCACCUAAGGCGAACGGUAUGGUGAAGGCAUAGUCUAGGGAGAGGCGAAAGUCACACAAACCGG [C82G A120U A145G C150G C169U U176A], for which the reverse-splicing fitness was 0.00829.
As to GUGCCUUGCGCCGGGAAACCACGCAAGGGAUGGUGUCAAAUUCGGCGAAACCUAAGCGCCCGCCCGGGCGUAUGGCAACGCGGAGCCAAGCUUCGGCGCCUGCGCCGAUGAAGGUGUAGUGACUAGACGGCACCCACCUAAGGCGAACGGUAUGGUGAAGGCAUAGUCUAGGGAGCGGCGAAAGUCACACAAACCGG [C82G A120U A145G C150G C169U U176C], the reverse-splicing fitness turned out to be 0.00701.
As for GUGCCUUGCGCCGGGAAACCACGCAAGGGAUGGUGUCAAAUUCGGCGAAACCUAAGCGCCCGCCCGGGCGUAUGGCAACGCGGAGCCAAGCUUCGGCGCCUGCGCCGAUGAAGGUGUAGUGACUAGACGGCACCCACCUAAGGCGAACGGUAUGGUGAAGGCAUAGUCUAGGGAGGGGCGAAAGUCACACAAACCGG [C82G A120U A145G C150G C169U U176G], the figure is 0.00451; as for GUGCCUUGCGCCGGGAAACCACGCAAGGGAUGGUGUCAAAUUCGGCGAAACCUAAGCGCCCGCCCGGGCGUAUGGCAACGCGGAGCCAAGCUUCGGCGCCUGCGCCGAUGAAGGUGUAGUGACUAGACGGCACCCACCUAAGGCGAACGAUAUGGUGAAGGCAUAGUCAAGGGAGGGGCGAAAGUCACACAAACCGG [C82G A120U A145G C150A C169A U176G], 0.00256; as for GUGCCUUGCGCCGGGAAACCACGCAAGGGAUGGUGUCAAAUUCGGCGAAACCUAAGCGCCCGCCCGGGCGUAUGGCAACGCGGAGCCAAGCUUCGGCGCCUGCGCCGAUGAAGGUGUAGUGACUAGACGGCACCCACCUAAGGCGAACGAUAUGGUGAAGGCAUAGUCCAGGGAGCGGCGAAAGUCACACAAACCGG [C82G A120U A145G C150A U176C], 0.014.
As for GUGCCUUGCGCCGGGAAACCACGCAAGGGAUGGUGUCAAAUUCGGCGAAACCUAAGCGCCCGCCCGGGCGUAUGGCAACGCGGAGCCAAGCUUCGGCGCCUGCGCCGAUGAAGGUGUAGUGACUAGACGGCACCCACCUAAGGCGAACGAUAUGGUGAAGGCAUAGUCCAGGGAGAGGCGAAAGUCACACAAACCGG [C82G A120U A145G C150A U176A], the figure is 0.0118.
GUGCCUUGCGCCGGGAAACCACGCAAGGGAUGGUGUCAAAUUCGGCGAAACCUAAGCGCCCGCCCGGGCGUAUGGCAACGCGGAGCCAAGCUUCGGCGCCUGCGCCGAUGAAGGUGUAGUGACUAGACGGCACCCACCUAAGGCGAACGAUAUGGUGAAGGCAUAGUCCAGGGAGGGGCGAAAGUCACACAAACCGG [C82G A120U A145G C150A U176G]: the reverse-splicing fitness was found to be 0.00517.
On to GUGCCUUGCGCCGGGAAACCACGCAAGGGAUGGUGUCAAAUUCGGCGAAACCUAAGCGCCCGCCCGGGCGUAUGGCAACGCGGAGCCAAGCUUCGGCGCCUGCGCCGAUGAAGGUGUAGUGACUAGACGGCACCCACCUAAGGCGAACGAUAUGGUGAAGGCAUAGUCGAGGGAGUGGCGAAAGUCACACAAACCGG [C82G A120U A145G C150A C169G], for which the reverse-splicing fitness was 0.00459.
As for GUGCCUUGCGCCGGGAAACCACGCAAGGGAUGGUGUCAAAUUCGGCGAAACCUAAGCGCCCGCCCGGGCGUAUGGCAACGCGGAGCCAAGCUUCGGCGCCUGCGCCGAUGAAGGUGUAGUGACUAGACGGCACCCACCUAAGGCGAACGAUAUGGUGAAGGCAUAGUCUAGGGAGUGGCGAAAGUCACACAAACCGG [C82G A120U A145G C150A C169U], the figure is 0.00376.
As for GUGCCUUGCGCCGGGAAACCACGCAAGGGAUGGUGUCAAAUUCGGCGAAACCUAAGCGCCCGCCCGGGCGUAUGGCAACGCGGAGCCAAGCUUCGGCGCCUGCGCCGAUGAAGGUGUAGUGACUAGACGGCACCCACCUAAGGCGAACGAUAUGGUGAAGGCAUAGUCGAGGGAGGGGCGAAAGUCACACAAACCGG [C82G A120U A145G C150A C169G U176G], the figure is 0.00199; as for GUGCCUUGCGCCGGGAAACCACGCAAGGGAUGGUGUCAAAUUCGGCGAAACCUAAGCGCCCGCCCGGGCGUAUGGCAACGCGGAGCCAAGCUUCGGCGCCUGCGCCGAUGAAGGUGUAGUGACUAGACGGCACCCACCUAAGGCGAACGAUAUGGUGAAGGCAUAGUCGAGGGAGCGGCGAAAGUCACACAAACCGG [C82G A120U A145G C150A C169G U176C], 0.00422; as for GUGCCUUGCGCCGGGAAACCACGCAAGGGAUGGUGUCAAAUUCGGCGAAACCUAAGCGCCCGCCCGGGCGUAUGGCAACGCGGAGCCAAGCUUCGGCGCCUGCGCCGAUGAAGGUGUAGUGACUAGACGGCACCCACCUAAGGCGAACGAUAUGGUGAAGGCAUAGUCGAGGGAGAGGCGAAAGUCACACAAACCGG [C82G A120U A145G C150A C169G U176A], 0.00555.
As for GUGCCUUGCGCCGGGAAACCACGCAAGGGAUGGUGUCAAAUUCGGCGAAACCUAAGCGCCCGCCCGGGCGUAUGGCAACGCGGAGCCAAGCUUCGGCGCCUGCGCCGAUGAAGGUGUAGUGACUAGACGGCACCCACCUAAGGCGAACGGUAUGGUGAAGGCAUAGUCCAGGGAGCGGCGAAAGUCACACAAACCGG [C82G A120U A145G C150G U176C], the figure is 0.0152; as for GUGCCUUGCGCCGGGAAACCACGCAAGGGAUGGUGUCAAAUUCGGCGAAACCUAAGCGCCCGCCCGGGCGUAUGGCAACGCGGAGCCAAGCUUCGGCGCCUGCGCCGAUGAAGGUGUAGUGACUAGACGGCACCCACCUAAGGCGAACGGUAUGGUGAAGGCAUAGUCCAGGGAGGGGCGAAAGUCACACAAACCGG [C82G A120U A145G C150G U176G], 0.0041.
GUGCCUUGCGCCGGGAAACCACGCAAGGGAUGGUGUCAAAUUCGGCGAAACCUAAGCGCCCGCCCGGGCGUAUGGCAACGCGGAGCCAAGCUUCGGCGCCUGCGCCGAUGAAGGUGUAGUGACUAGACGGCACCCACCUAAGGCGAACGGUAUGGUGAAGGCAUAGUCCAGGGAGAGGCGAAAGUCACACAAACCGG [C82G A120U A145G C150G U176A]: the reverse-splicing fitness was found to be 0.00899.

The record behind these values is the RNAGym collection of RNA variant scans (doi:10.1093/molbev/msab373).
